Biological target: T1, GST-AIM3 fusion protein (human, UniProt O43324 1-174)
T1 construct: Immobilised on glutathione-sepharose beads; also called GST-fused AIM3; GST-fused AIM3 protein; not shown: glutathione S-transferase (GST) fusion partner from the Pharmacia system; The vector, the linker and the order of the fu
T1 sequence: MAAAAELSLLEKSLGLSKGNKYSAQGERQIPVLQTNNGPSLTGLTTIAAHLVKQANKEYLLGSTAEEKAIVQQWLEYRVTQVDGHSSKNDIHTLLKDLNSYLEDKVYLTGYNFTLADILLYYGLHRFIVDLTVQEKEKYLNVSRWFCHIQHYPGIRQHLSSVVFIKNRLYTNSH
Test: GST pull-down of in vitro translated, radiolabelled fragment, autoradiography
From the text: First, AIM3 was expressed as GST fusion protein and purified according to the manufacturer's protocol (Pharmacia). Meanwhile, since it was difficult to synthesize the whole ATM due to its large size, the present inventors tested the interaction between the functional domain of ATM and AIM3. For this purpose, a fragment consisting of 612 amino acids, including the FAT domain of an ATM structure, was amplified by PCR with primers shown in SEQ ID NO: 12 and SEQ ID NO: 13. Also, a fragment (control group) consisting of 145 amino acids, including the C-terminal domain, was amplified by PCR with primers shown in SEQ ID NO: 14 and SEQ ID NO: 15. Then, the amplified PCR products were subdloned into pcDNA3.1 (Invitrogen), a vector suitable for in vitro transcription and […]. At this time, the protein was synthesized by in vitro translation in the presence of radioactive methionine. 10 μl of the synthesized TNT product was incubated with the GST- or GST-AIM3 fusion protein-immobilized glutathion-sepharose beads for 5 minutes. Then, the beads were washed six times with a binding buffer (PBS containing 0.2% sarcosine and 0.2% Triton X100), and dissolved in 10% SDS-PAGE. The binding of the GST-fused AIM3 to each domain was determined by autoradiography.

- binding result: no binding
B1: ATM fragment consisting of 145 amino acids, including the C-terminal domain (other, UniProt Q13315 2912-3056, looked up)
chain: RDIVDGMGITGVEGVFRRCCEKTMEVMRNSQETLLTIVEVLLYDPLFDWTMNPLKALYLQQRPEDETELHPTLNADDQECKRNLSDIDQSFNKVAERVLMRLQEKLKGVEEGTVLSVGGQVNLLIQQAIDPKNLSRLFPGWKAWV
modifications: radioactive methionine (in vitro translated)
notes: domain: C-terminal domain; Made by in vitro transcription and translation from pcDNA3.1; Its limits are set only by the PCR primers; also called C-terminal domain of ATM; control group fragment

From patent US20060046250A1 (SEOUL NATIONAL UNIVERSITY INDUSTRY FOUNDATION, published 2006)
